T1: FcγRIIb extracellular domain with C-terminal His tag (human, UniProt P31994 43-217)
T1 construct: extracellular domain; Soluble receptor used as analyte in Biacore; also called FcgRIIb; CD32B
T1 sequence (looked up): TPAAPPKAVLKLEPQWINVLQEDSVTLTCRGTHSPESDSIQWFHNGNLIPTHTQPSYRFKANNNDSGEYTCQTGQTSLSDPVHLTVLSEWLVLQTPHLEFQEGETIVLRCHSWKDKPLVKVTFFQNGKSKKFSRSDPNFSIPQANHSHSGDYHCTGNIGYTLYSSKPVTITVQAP

T2: FcγRIIb extracellular domain with C-terminal His tag (human, UniProt P31994 43-217)
T2 construct: extracellular domain; also called FcgRIIb; 2b
T2 sequence (looked up): T1 sequence (looked up)

B1: GpH7-A5/GpH7-B3 variant Q295_01G/GpL16-k0 (antibody, human IgG1, kappa)
heavy 1: not shown
heavy 2: not shown
light: DIVMTQSPLSLPVTPGEPASISCQASESLVHSNRNTYLHWYLQKPGQSPQLLIYKVSNRFSGVPDRFSGSGSGTDFTLKISRVEAEDVGVYYCSQNTHVPPTFGQGTKVEIERTVAAPSVFIFPPSDEQLKSGTASVVCLLNNFYPREAKVQWKVDNALQSGNSQESVTEQDSKDSTYSLSSTLTLSKADYEKHKVYACEVTHQGLSSPVTKSFNRGEC
notes: Heterodimerized anti-glypican-3 IgG1; alteration only in the GpH7-B3 chain, EU numbering; also called He Ab
B2: GpH7-A5/GpH7-B3 variant Q295_02A/GpL16-k0 (antibody, human IgG1, kappa)
heavy 1: not shown
heavy 2: not shown
light: B1 light
notes: as for B1
B3: GpH7-A5/GpH7-B3 variant D270_20W/GpL16-k0 (antibody, human IgG1, kappa)
heavy 1: not shown
heavy 2: not shown
light: B1 light
notes: as for B1
B4: GpH7-A5/GpH7-B3 variant Q295_05P/GpL16-k0 (antibody, human IgG1, kappa)
heavy 1: not shown
heavy 2: not shown
light: B1 light
notes: as for B1
B5: GpH7-A5/GpH7-B3 variant Q295_03V/GpL16-k0 (antibody, human IgG1, kappa)
heavy 1: not shown
heavy 2: not shown
light: B1 light
notes: as for B1
B6: GpH7-A5/GpH7-B3 variant Q295_07I/GpL16-k0 (antibody, human IgG1, kappa)
heavy 1: not shown
heavy 2: not shown
light: B1 light
notes: as for B1
B7: GpH7-A5/GpH7-B3 variant Q295_04F/GpL16-k0 (antibody, human IgG1, kappa)
heavy 1: not shown
heavy 2: not shown
light: B1 light
notes: as for B1
B8: GpH7-A5/GpH7-B3 variant Q295_09D/GpL16-k0 (antibody, human IgG1, kappa)
heavy 1: not shown
heavy 2: not shown
light: B1 light
notes: as for B1
B9: GpH7-A5/GpH7-B3 variant E269_05P/GpL16-k0 (antibody, human IgG1, kappa)
heavy 1: not shown
heavy 2: not shown
light: B1 light
notes: Heterodimerized anti-glypican-3 IgG1; mutation in the GpH7-B3 chain only; also called He Ab E269P
B10: GpH7-A5/GpH7-B3 variant H268_14T/GpL16-k0 (antibody, human IgG1, kappa)
heavy 1: not shown
heavy 2: not shown
light: B1 light
notes: Heterodimerized anti-glypican-3 IgG1; mutation in the GpH7-B3 chain only; also called He Ab H268T
B11: GpH7-A5/GpH7-B3 variant H268_11K/GpL16-k0 (antibody, human IgG1, kappa)
heavy 1: not shown
heavy 2: not shown
light: B1 light
notes: Heterodimerized anti-glypican-3 IgG1; mutation in the GpH7-B3 chain only; also called He Ab H268K
B12: GpH7-A5/GpH7-B3 variant E269_11K/GpL16-k0 (antibody, human IgG1, kappa)
heavy 1: not shown
heavy 2: not shown
light: B1 light
notes: Heterodimerized anti-glypican-3 IgG1; mutation in the GpH7-B3 chain only; also called He Ab E269K
B13: GpH7-A5/GpH7-B3 variant E269_15Y/GpL16-k0 (antibody, human IgG1, kappa)
heavy 1: not shown
heavy 2: not shown
light: B1 light
notes: Heterodimerized anti-glypican-3 IgG1; mutation in the GpH7-B3 chain only; also called He Ab E269Y
B14: GpH7-A5/GpH7-B3 variant S267_12R/GpL16-k0 (antibody, human IgG1, kappa)
heavy 1: not shown
heavy 2: not shown
light: B1 light
notes: Heterodimerized anti-glypican-3 IgG1; mutation in the GpH7-B3 chain only; also called He Ab S267R
B15: GpH7-A5/GpH7-B3 variant S267_20W/GpL16-k0 (antibody, human IgG1, kappa)
heavy 1: not shown
heavy 2: not shown
light: B1 light
notes: Heterodimerized anti-glypican-3 IgG1; mutation in the GpH7-B3 chain only; also called He Ab S267W
B16: GpH7-A5/GpH7-B3 variant E269_13S/GpL16-k0 (antibody, human IgG1, kappa)
heavy 1: not shown
heavy 2: not shown
light: B1 light
notes: Heterodimerized anti-glypican-3 IgG1; mutation in the GpH7-B3 chain only; also called He Ab E269S
B17: GpH7-A5/GpH7-B3 variant H268_06M/GpL16-k0 (antibody, human IgG1, kappa)
heavy 1: not shown
heavy 2: not shown
light: B1 light
notes: Heterodimerized anti-glypican-3 IgG1; mutation in the GpH7-B3 chain only; also called He Ab H268M
B18: GpH7-A5/GpH7-B3 variant E269_08L/GpL16-k0 (antibody, human IgG1, kappa)
heavy 1: not shown
heavy 2: not shown
light: B1 light
notes: Heterodimerized anti-glypican-3 IgG1; mutation in the GpH7-B3 chain only; also called He Ab E269L

target: T3, FcγRIa extracellular domain with C-terminal His tag (human, UniProt P12314 16-292); assay: SPR (Biacore); He/Con_1a divided by He/Con_2b (FcγRIa binding over FcγRIIb binding)
T3 construct: extracellular domain; also called FcgRI; 1a
Description: (§1) The heterodimerized antibodies He Abs in which one of the H chains was introduced with an alteration were assayed for their binding activities to each activating FcγR and inhibitory FcγR according to the method described in Example 4. […] The activating FcγRs in FIGS. 26, 27, 28, and 29 are FcγRIa, FcγRIIa (R), FcγRIIa (H), and FcγRIIIa, respectively.
(§2) Analysis of interaction between objective antibody and the FcγR was carried out using Biacore T100 (GE Healthcare). HBS-EP+ (GE Healthcare) was used as the running buffer, and the measurement temperature was set to 25° C. Chips produced by immobilizing the antigen peptide by the amine coupling method to a Series S Sencor Chip CM5 (GE Healthcare), or alternatively, chips produced by allowing preliminarily biotinylated antigen peptides to interact with and immobilize onto a Series S Sensor Chip SA (certified) (GE Healthcare) were used. Antibodies of interest were captured onto an antigen peptide-immobilized chip, and allowed to interact to each FcγR diluted with running buffer. To regenerate and repeatedly use the chip, the antibodies captured on the chip were washed off by reacting 10 mM glycine-HCl, pH 1.5.
T3 sequence (P12314 16-292): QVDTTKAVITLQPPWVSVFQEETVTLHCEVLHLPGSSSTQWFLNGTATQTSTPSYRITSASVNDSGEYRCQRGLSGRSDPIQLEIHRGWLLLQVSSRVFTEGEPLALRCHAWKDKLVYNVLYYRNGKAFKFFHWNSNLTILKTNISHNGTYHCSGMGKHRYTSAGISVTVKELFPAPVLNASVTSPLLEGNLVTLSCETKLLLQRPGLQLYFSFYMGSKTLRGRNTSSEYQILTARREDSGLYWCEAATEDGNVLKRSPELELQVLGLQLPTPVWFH

He_1a/2b (Ia/IIb) | Binder
2.12 ratio | B1
1.31 ratio | B2
1.96 ratio | B3
1.53 ratio | B4
1.37 ratio | B5
1.22 ratio | B6
1.58 ratio | B7
1.65 ratio | B8

target: T4, FcγRIa extracellular domain with C-terminal His tag (human, UniProt P12314 16-292); assay: SPR Biacore, antibody captured on antigen-peptide chip, FcγR as analyte
T4 construct: extracellular domain; Soluble receptor used as analyte in Biacore; also called FcgRI; FcgRIa
T4 sequence (P12314 16-292): as above

He/Con_1a | Binder
102 relative, GpH7-A5/GpH7-B3/GpL16-k0 = 100 | B9
112 relative, GpH7-A5/GpH7-B3/GpL16-k0 = 100 | B10
106 relative, GpH7-A5/GpH7-B3/GpL16-k0 = 100 | B11
95.2 relative, GpH7-A5/GpH7-B3/GpL16-k0 = 100 | B12
106 relative, GpH7-A5/GpH7-B3/GpL16-k0 = 100 | B13
92.7 relative, GpH7-A5/GpH7-B3/GpL16-k0 = 100 | B14
99.4 relative, GpH7-A5/GpH7-B3/GpL16-k0 = 100 | B15
103 relative, GpH7-A5/GpH7-B3/GpL16-k0 = 100 | B16
105 relative, GpH7-A5/GpH7-B3/GpL16-k0 = 100 | B17
104 relative, GpH7-A5/GpH7-B3/GpL16-k0 = 100 | B18

target: T1, FcγRIIb extracellular domain with …; assay: as above

He/Con_2b | Binder
52.6 relative, GpH7-A5/GpH7-B3/GpL16-k0 = 100 | B9
86 relative, GpH7-A5/GpH7-B3/GpL16-k0 = 100 | B10
83 relative, GpH7-A5/GpH7-B3/GpL16-k0 = 100 | B11
17.8 relative, GpH7-A5/GpH7-B3/GpL16-k0 = 100 | B12
44.7 relative, GpH7-A5/GpH7-B3/GpL16-k0 = 100 | B13
11.3 relative, GpH7-A5/GpH7-B3/GpL16-k0 = 100 | B14
57.2 relative, GpH7-A5/GpH7-B3/GpL16-k0 = 100 | B15
47.8 relative, GpH7-A5/GpH7-B3/GpL16-k0 = 100 | B16
65.7 relative, GpH7-A5/GpH7-B3/GpL16-k0 = 100 | B17
42.9 relative, GpH7-A5/GpH7-B3/GpL16-k0 = 100 | B18

target: T2, FcγRIIb extracellular domain with …; assay: SPR (Biacore), antibody captured via antigen peptide, FcγR as analyte; relative binding
Description: as §1, §2

He/Con_2b | Binder
46 % of GpH7-A5/GpH7-B3/GpL16-k0 (=100) | B1
79.7 % of GpH7-A5/GpH7-B3/GpL16-k0 (=100) | B2
34.7 % of GpH7-A5/GpH7-B3/GpL16-k0 (=100) | B3
67.5 % of GpH7-A5/GpH7-B3/GpL16-k0 (=100) | B4
75.7 % of GpH7-A5/GpH7-B3/GpL16-k0 (=100) | B5
84.3 % of GpH7-A5/GpH7-B3/GpL16-k0 (=100) | B6
64.7 % of GpH7-A5/GpH7-B3/GpL16-k0 (=100) | B7
60.8 % of GpH7-A5/GpH7-B3/GpL16-k0 (=100) | B8

target: T3, FcγRIa extracellular domain with …; assay: as above
Description: as §1, §2

He/Con_1a | Binder
97.6 % of GpH7-A5/GpH7-B3/GpL16-k0 (=100) | B1
104 % of GpH7-A5/GpH7-B3/GpL16-k0 (=100) | B2
68 % of GpH7-A5/GpH7-B3/GpL16-k0 (=100) | B3
103 % of GpH7-A5/GpH7-B3/GpL16-k0 (=100) | B4
104 % of GpH7-A5/GpH7-B3/GpL16-k0 (=100) | B5
103 % of GpH7-A5/GpH7-B3/GpL16-k0 (=100) | B6
102 % of GpH7-A5/GpH7-B3/GpL16-k0 (=100) | B7
100 % of GpH7-A5/GpH7-B3/GpL16-k0 (=100) | B8
